Source: patent US20150274841A1

Columns and labels:
[1] = target: human plasma kallikrein (PKal) (human), P03952; experiment: Ki,app; Fab inhibition of PKal cleavage of a substrate peptide, Morrison fit; settings: remark: other sources report otherwise
[2] = target: human plasma kallikrein (PKal) (human), P03952; experiment: enzyme inhibition assay: rate (F/s) of substrate peptide cleavage by PKal against [Fab] (nM), fitted to the Morrison equation; apparent Ki (Ki,app); Table 3 prints 2.5 nM; settings: remark: other sources report otherwise

human plasma kallikrein (PKal) (human), P03952, sequence (P03952 20-638 limits assumed): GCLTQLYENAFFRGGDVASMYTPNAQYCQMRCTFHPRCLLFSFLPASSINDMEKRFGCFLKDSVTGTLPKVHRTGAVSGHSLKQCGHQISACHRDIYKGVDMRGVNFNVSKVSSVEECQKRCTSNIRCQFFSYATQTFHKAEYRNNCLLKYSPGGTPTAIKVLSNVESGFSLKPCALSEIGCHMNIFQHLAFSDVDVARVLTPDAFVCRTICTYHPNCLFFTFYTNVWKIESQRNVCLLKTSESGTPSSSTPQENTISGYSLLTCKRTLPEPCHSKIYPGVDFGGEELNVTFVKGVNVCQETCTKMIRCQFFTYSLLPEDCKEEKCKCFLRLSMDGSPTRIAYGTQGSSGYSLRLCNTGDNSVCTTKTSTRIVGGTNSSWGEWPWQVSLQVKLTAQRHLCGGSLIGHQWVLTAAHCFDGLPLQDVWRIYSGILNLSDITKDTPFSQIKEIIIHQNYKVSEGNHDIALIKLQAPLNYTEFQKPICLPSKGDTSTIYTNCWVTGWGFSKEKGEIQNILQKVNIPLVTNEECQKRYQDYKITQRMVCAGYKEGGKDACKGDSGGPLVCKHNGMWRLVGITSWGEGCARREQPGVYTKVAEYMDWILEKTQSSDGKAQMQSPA

Ki [1]: 2.5 nM
Ki [2]: 6.54 nM
B1: M0162-A04 (Fab, V domains shown)
VH: EVQLLESGGGLVQPGGSLRLSCAASGFTFSHYIMMWVRQAPGKGLEWVSGIYSSGGITVYADSVKGRFTISRDNSKNTLYLQMNSLRAEDTAVYYCAYRRTGIPRRDAFDIWGQGTMVTVSS
VL: DIQMTQSPSTLSASVGDRVTITCRASQSISSWLAWYQQKPGKAPNLLIYKASTLESGVPSRFSGSGSGTEFTLTISSLQPDDFATYYCQQYNTYWTFGQGTKVEIK
